Measurements: US20240391979A1 (ACHELOIS BIOPHARMA, published 2024)

What was measured:
[1] = target: Small Hepatitis B surface Antigen (S-HBsAg), HBV subtype not stated (Hepatitis B virus); assay: cell-based or functional assay
[2] = target: Small Hepatitis B surface Antigen (S-HBsAg), HBV subtype ayw (Hepatitis B virus, subtype ayw, UniProt P03138 1-226); assay: cell-based or functional assay
Chain of Small Hepatitis B surface Antigen (S-HBsAg), HBV subtype ayw (P03138 164-389): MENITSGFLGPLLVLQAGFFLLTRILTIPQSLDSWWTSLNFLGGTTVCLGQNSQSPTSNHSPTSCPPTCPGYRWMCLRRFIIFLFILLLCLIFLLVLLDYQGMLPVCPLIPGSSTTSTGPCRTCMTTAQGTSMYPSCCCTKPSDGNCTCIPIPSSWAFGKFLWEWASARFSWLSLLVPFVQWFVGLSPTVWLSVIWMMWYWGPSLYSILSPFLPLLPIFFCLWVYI

B1: bivalent, soluble H015 (antibody, V domains shown)
VH: QVQLVESGGGVAQPGRSLRLSCAASGFSFSRHGMHWVRQAPGKGLEWVAGIWFDGTNDYYTDSVKGRFTISRDNSRSTLYLDINSLRAEDTAVYYCAREDPHLLIATLDLWGLGTLVTVSS
VL: DIQVTQSPSSLSAFVGDRVTITCRASQGLTSFINWYQQKPGRAPKLLISSASSLQRGVPSRFTASGSGTHFTLTISSLQPEDFATYYCQQSYGTPALAFGGGTKVDIK
For B1, the “IC50, in vitro HDV neutralization in primary human hepatocytes (HDV RNA)” value [1] was 0.113 nM and the “IC50, in vitro HBV neutralization assay, HepG2-NTCP cells, ayw subtype” value [2] was 0.0836 nM.
